The source of these data is US20200347130A1 (JIANGSU HENGRUI MEDICINE, published 2020).

The chains are these.
T1: CD96 extracellular region with His tag (CD96-His) (human, UniProt P40200 22-519)
T1 construct: also called CD96-ECD-His; Bio-CD96-His (biotin-labelled form)
T1 sequence: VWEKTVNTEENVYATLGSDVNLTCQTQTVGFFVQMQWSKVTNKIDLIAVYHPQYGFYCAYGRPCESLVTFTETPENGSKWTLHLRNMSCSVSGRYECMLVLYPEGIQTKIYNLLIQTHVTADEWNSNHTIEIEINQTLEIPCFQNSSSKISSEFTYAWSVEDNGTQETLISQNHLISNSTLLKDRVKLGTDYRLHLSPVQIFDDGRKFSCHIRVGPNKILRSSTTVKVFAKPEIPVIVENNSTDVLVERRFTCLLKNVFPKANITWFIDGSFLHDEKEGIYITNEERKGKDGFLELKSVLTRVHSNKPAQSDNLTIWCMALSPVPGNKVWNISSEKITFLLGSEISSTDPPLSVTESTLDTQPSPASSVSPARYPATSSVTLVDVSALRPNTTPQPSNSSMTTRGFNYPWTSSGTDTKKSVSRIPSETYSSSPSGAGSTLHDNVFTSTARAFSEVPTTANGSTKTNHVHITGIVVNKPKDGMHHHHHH

T2: Full-length human CD96 on CHO-S cells (human, UniProt P40200 22-585)
T2 construct: also called CD96-CHOs; hCD96-CHOs
T2 sequence: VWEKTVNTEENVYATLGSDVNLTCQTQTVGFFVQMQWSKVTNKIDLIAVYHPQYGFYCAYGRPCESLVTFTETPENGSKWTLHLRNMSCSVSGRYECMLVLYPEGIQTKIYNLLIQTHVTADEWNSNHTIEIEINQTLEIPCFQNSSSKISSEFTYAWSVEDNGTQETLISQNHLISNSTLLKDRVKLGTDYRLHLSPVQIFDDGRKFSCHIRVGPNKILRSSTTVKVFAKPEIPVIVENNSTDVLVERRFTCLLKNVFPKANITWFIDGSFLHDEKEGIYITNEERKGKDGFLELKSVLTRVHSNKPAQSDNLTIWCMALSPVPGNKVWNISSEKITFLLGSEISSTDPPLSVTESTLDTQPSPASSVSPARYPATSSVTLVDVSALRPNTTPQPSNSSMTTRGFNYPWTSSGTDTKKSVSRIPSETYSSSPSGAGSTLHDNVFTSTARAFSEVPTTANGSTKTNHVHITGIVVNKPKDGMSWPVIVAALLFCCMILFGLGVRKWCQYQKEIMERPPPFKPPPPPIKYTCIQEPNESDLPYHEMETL

B1: h1722-005 (antibody, V domains shown)
VH: EVQLVQSGAEVKKPGSSVKVSCKASGGTFSDYWMHWVRQAPGQGLEWMGMLHPNSGTTSFNEKFKIRVTITADKSTSTAYMELSSLRSEDTAVYYCARDYSGPFAYWGQGTLVTVSS
VL: DIQMTQSPSSLSASVGDRVTITCSASSSVNYIHWYQQKPGKAPKRWIYDTSKLASGVPSRFSGSGSGTDFTLTISSLQPEDFATYYCQQWRSNPLTFGQGTKLEIK
notes: Only variable regions are tied to this name
B2: h1719-003 (antibody, V domains shown)
VH: EVTLKESGPVLVKPTETLTLTCTVSGFSLSSYGVSWVRQPPGKGLEWLGVIWGDGNTNYHSVLISRLTISKDTSKSQVVLTLTNMDPVDTATYYCAKNNYYGSRYGYPMDYWGQGTTVTVSS
VL: DIQMTQSPSSVSASVGDRVTITCKATQDVGTAVAWYQQKPGKAPKLLIYWASTRHTGVPSRFSGSGSGTDFTLTISSLQPEDFATYYCQQYGSSVLTFGGGTKVEIK
notes: also called M719-003
B3: h1722-008 (antibody, V domains shown)
VH: B1 VH with G27N, R38K, M48I, V68T, A72I, R98S
VL: B1 VL
notes: as for B1
B4: h1722-012 (antibody, V domains shown)
VH: B1 VH with G27N, R38K, M48I, V68T, A72I, R98S
VL: B1 VL with M4L, Y48F, F70Y
notes: as for B1
B5: h1722-009 (antibody, V domains shown)
VH: B1 VH
VL: B1 VL with M4L, Y48F, F70Y
notes: as for B1
B6: h1722-011 (antibody, V domains shown)
VH: B1 VH with R38K, M48I, A72I, R98S
VL: B1 VL with M4L, Y48F, F70Y
notes: as for B1
B7: h1719-007 (antibody, V domains shown)
VH: B2 VH with N98Q, M109L
VL: B2 VL
notes: as for B1
B8: h1719-013 (antibody, V domains shown)
VH: B2 VH with N98Q, M109L
VL: B2 VL with A43S, S60E, Y87F
notes: as for B1
B9: h1719-016 (antibody, V domains shown)
VH: B2 VH with N98Q, M109I
VL: B2 VL with A43S, S60E, Y87F
notes: as for B1
B10: h1719-008 (antibody, V domains shown)
VH: B2 VH with N99Y, M109L
VL: B2 VL
notes: as for B1

Changes are numbered by the printed parent chain.

In the first assay the target is T1, CD96 extracellular region with His tag …. As to the kind of experiment: ELISA, CD96-His coated. The protocol:
The binding capacity of the anti-CD96 antibody was tested by ELISA to determine the binding of the antibody to human CD96 protein. The His-tagged CD96 fusion protein was used to coat the microtiter plate, and the intensity of the signal after adding with the antibody was used for evaluating the binding activity of the antibody and CD96. The specific experimental method is as follows:
CD96-His with the sequence of SEQ ID NO: 4 prepared in Embodiment 1 was diluted to a concentration of 2 μg/ml with PBS buffer (Shanghai Yuanpei Biotechnology Co., Ltd. Cat No. B320), pH 7.4, added to a 96-well microtiter plate (Corning, Cat No. CLS3590-100EA) at a volume of 50 μl/well, and placed in an incubator at 37° C. for 2 hours. After discarding the liquid, 250 μl/well of 5% skim milk (BD, Cat No. 232100) blocking solution diluted with PBS was added, and the plate was incubated at 37° C. for 2.5 hours or at 4° C. overnight (16-18 hours) for blocking. After blocking, the blocking solution was discarded, and the plate was washed 4 times with PBST buffer (pH 7.4 PBS containing 0.05% tween-20). 50 μl/well of different concentrations of the antibodies to be tested (hybridoma purification antibody or humanized antibody) diluted with sample dilution was added, and the plate was incubated in an incubator at 37° C. for 1 hour. […] After washing the plate 4 times with PBST, 50 μl/well of TMB chromogenic substrate (KPL, Cat No. 52-00-03) was added, and the plate was incubated at room temperature for 5-15 minutes, followed by adding 50 μl/well of 1M H₂SO₄ to stop the reaction. The absorption value was read at 450 nm with a NOVOStar microplate reader, and the EC50 value of the binding of CD96 antibody to human CD96 was calculated (see Table 13).
In general terms: In an ELISA, binding on a coated surface is turned into a signal by an enzyme label.
Take B1: the concentration for a half-maximal effect (EC50) came out at 0.072 nM.
B2 gave an EC50 of 0.085 nM.

Another assay has the same target. As to the kind of experiment: blocking cell ELISA: antibody premixed with Bio-CD96-His (0.5 ug/mL), binding to fixed CD155-CHO cells. The protocol: CD155-CHO cells (constructed by Shanghai Hengrui) were seeded in 96-well culture plates at a density of 9×10⁴/100 μL/well and cultured overnight. After aspirating the supernatant, the plate was washed once with PBS, 100 μl/well of immunostaining fixation solution (Biyuntian, Cat No. P0098) was added and fixed for one hour at room temperature, and the plate was washed three times with PBS. After discarding the liquid, 250 μl/well of 5% skim milk (BD, Cat No. 232100) blocking solution diluted with PBS was added, and the plate was blocked in an incubator at 37° C. for 2.5 hours. After blocking, the blocking solution was discarded, subsequently, the plate was washed 4 times with PBST buffer (pH 7.4 PBS containing 0.05% tween-20). 50 μl/well of antigen-antibody pre-incubation solution (gradient concentrations of the hybridoma antibody to be tested and CD96-Fc at a final concentration of 0.5 μg/mL were premixed at 37° C. for 30 minutes, or gradient concentrations of humanized antibody samples and Bio-CD96-His at a final concentration of 0.5 μg/mL were premixed at 37° C. for 30 minutes) (Biotin-labeled kit, Dongren Chemical, Cat No. LK03) was added, and the plate was incubated in an incubator at 37° C. for 2 hours. After incubation, the reaction solution in the microtiter plate was discarded, the plate was washed 4 times with PBST, and 50 μl/well of HRP-labeled goat anti-human secondary antibody (Jackson Immuno Research, Cat No. 109-035-003) diluted with sample dilution or HRP-labeled streptavidin diluted with sample dilution (Sigma, Cat No. 52438) was added, followed by incubating at 37° C. for 1 hour. After washing the plate 4 times with PBST, 50 μl/well of TMB chromogenic substrate (KPL, Cat No. 52-00-03) was added, the plate was incubated at room temperature for 10-20 minutes, followed by adding 50 μl/well of 1M H₂SO₄ to stop the reaction. The absorption value was read at 450 nm with a NOVOStar microplate reader, and the EC50 value of the effect of CD96 antibody on blocking the binding between the antigens and CD155-CHO cells was calculated (see FIG. 2 and Table 16).
Regarding B2, the half-inhibitory concentration (IC50) amounted to 0.096 nM.

The target in the next assay is T2, Full-length human CD96 on CHO-S cells. As to the kind of experiment: cell ELISA, fixed CD96-overexpressing CHO-S cells. Here is the method:
The binding capacity of the anti-CD96 antibody was tested by binding experiments of the antibody to human CD96 protein overexpressing CHO-S cells. The full-length CD96 plasmid was transfected into CHO-S cells by electrotransfection, and cells were then screened for two weeks under pressure for the detection of the expression of CD96. After the over-expressing cells were fixed at the bottom of the 96-well plate, the density of the signal after adding the antibody was used to judge the binding activity of the antibody to CD96 overexpressing CHO-S cells. The specific experimental method is as follows:
The cells were seeded at a density of 9×10⁴/100 μL/well in a 96-well plate and cultured overnight. After aspirating the supernatant, the plate was washed once with PBS, subsequently, 100 μl/well immunostaining fixation solution (Biyuntian, P0098) was added and fixed for one hour at room temperature, and the plate was washed three times with PBS. Once the liquid was discarded, 250 μl/well of 5% skim milk (BD, 232100) blocking solution diluted with PBS was added, and the plate was blocked in an incubator at 37° C. for 2.5 hours. After blocking, the blocking solution was discarded, the plate was washed 4 times with PBST buffer (pH 7.4 PBS containing 0.05% tween-20), followed by diluting 50 μl/well of different concentrations of the antibodies (hybridoma purification antibody or humanized antibody) to be tested the plate was incubated in an incubator at 37° C. for 2 hours. After incubation, the plate was wash 4 times with PBST. […] After washing the plate 4 times with PBST, 50 μl/well of TMB chromogenic substrate (KPL, Cat No. 52-00-03) was added, the plate was incubated at room temperature for 10-25 min, followed by adding 50 μl/well of 1M H₂SO₄ to stop the reaction. The absorption value was read at 450 nm with a NOVOStar microplate reader, and the EC50 value of the CD96 antibodies to CD96 overexpressing CHO-S cells was calculated (see FIG. 1 and Table 15).
Turning to B1, the EC50 was 0.045 nM.
B2 gave an EC50 of 0.028 nM.

A further assay addresses T1, CD96 extracellular region with His tag …. As to the kind of experiment: SPR (Biacore), antibody captured, CD96-ECD-His as mobile phase. The source says:
Protein A biosensor chip was used to capture antibodies to be tested, then CD96 antigen was flowed on the surface of the chip, and real time reaction signal was detected by Biacore to obtain the binding and dissociation curve. After the dissociation of each experimental cycle was completed, the biosensor chip was washed and regenerated with a glycine-hydrochloric acid regeneration solution (pH 1.5).
Background: Surface plasmon resonance follows binding to a sensor surface in real time, without labels.
With B1, the dissociation constant Kd amounted to 9.87 nM.
Turning to B3, the Kd was found to be 1 nM.
Molecule B4 yielded a dissociation constant (Kd) of 0.781 nM.
The molecule B5 gave a dissociation constant Kd of 4.55 nM.
In the case of B6, the affinity, expressed as Kd, was 0.948 nM.
For the molecule B7, binding was characterised by a dissociation constant (Kd) of 25.5 nM.
The molecule B8 returned a Kd of 19.8 nM.
Still for that read-out and setting: as for B9, the figure is 90.7 nM; as for B10, 17.6 nM.

For orientation: EC50 means the concentration needed to bring the measured effect to its halfway point. High values mean a less potent agent, low ones a more potent agent. A word on the IC50: it is the concentration that gives 50% inhibition. Low values mean greater potency, high ones weaker potency. As usually defined, the Kd is the free concentration of one partner at which half of the binding sites on the other are occupied at equilibrium, for simple one-to-one binding. Higher therefore signals a looser complex.
